# Laboratory results as given in the RNAGym collection of RNA variant scans (doi:10.7554/elife.90254).
# B1: OR4K15 (parent)
# chain: GUUAACGGUCAUAGGCCAUGGAAACUAGGAGCACCAUUUCGCUGCCAGUGAAGAAAUGAACAAAGAAAAUCUGGGCCAGGCAGGCAUCAAAAGAAAUAGUCUUGCGCUCAACCAGAAAGUCUGUAAUCAUUUUAAGGGUA
# Variants of: B1
# Experiment: self-cleavage, relative activity (ratio to wild type); higher = more cleavage; in vitro, sequencing; the parent is a self-cleaving ribozyme
row,Variant,self-cleavage
1,A36U U120C,1.34
2,A33G A67G,1.06
3,A36G A126G,1.48
4,A36G A126U,1.76
5,A33G G80A,0.12
6,A36G A98U,2.12
7,A36G A98G,1.54
8,A33U A82U,0.23
9,A36C G48A,1.28
10,A33U G74C,0.05
11,C35U A135G,1.57
12,C35U U131A,1.01
13,C34U U72C,0.17
14,A33G U100A,0.28
15,A36U A140G,2.09
16,A33C U108C,0.01
17,C34U A92G,1.04
18,A36C A55G,1.7
19,A36G A94G,1.86
20,A33G A68G,1.04
21,A33G A68U,1.02
22,A36G A60U,0.82
23,A33G U70A,0.5
24,A36U A135U,1.85

row,Variant,self-cleavage
1,A33U C85A,2.05
2,A36U A63G,1.98
3,U37A A67U,0.67
4,A33U A125G,0.99
5,C35A A66G,0.76
6,A33G G93A,1.14
7,A33U U43C,0.26
8,A33G A114G,0.11
9,A33G A114U,0.02
10,A33G A114C,0.05
11,A33U A86G,1.33
12,A33U A135U,1.79
13,A36U C61U,2.41
14,A33G U43A,1.32
15,A33C A135G,1.64
16,A33G A98G,0.77
17,A36G C85U,0.98
18,A33G A47G,0.32
19,A33G A47U,0.57
20,A36U A92G,1.61
21,A33G A55G,0.85
22,C34U U70C,0.23
23,A36U A95U,1.37
24,A36U A95G,2.18

row,Variant,self-cleavage
1,A36G A114G,1.06
2,U37A A91G,0.78
3,C35U G136U,1.19
4,A36U A129G,1.12
5,A33U U57C,0.68
6,C34A U103C,0.77
7,C35U C88A,1.16
8,C34A U43A,1.8
9,A33G A54C,0.95
10,A33G A54G,1.06
11,C34A G73A,0.17
12,C35A G99U,0.79
13,A33U G41A,1.52
14,A36U A125G,0.7
15,A36U A118G,1.05
16,A33U U120C,1.32
17,A36C A96G,1.9
18,A33U U70A,0.33
19,A36U U102C,2.06
20,A33G A59G,0.98
21,A36U C105U,0.17
22,A33U A117G,1.9
23,C35G,1.34
24,C35A,1.58

row,Variant,self-cleavage
1,C35U,1.06
2,A33G C42G,1.02
3,C35A A91G,1.42
4,A36G A95G,2.04
5,A33G A91U,0.94
6,A36U U122A,1.78
7,A36U U122C,1.15
8,A33G A86G,0.7
9,A33G U108C,0.02
10,A33G U108A,0.02
11,A33G U49C,0.5
12,A33G U49G,0.61
13,C34U U43A,0.99
14,A36U U130C,1.45
15,A33G A110G,0.15
16,A33G A111U,0.06
17,A36G U102C,1.88
18,A33U C101A,0.35
19,C35U U57C,0.58
20,A33C C46U,1.3
21,A36U U43C,2.05
22,A36C A59G,1.68
23,C34U U39C,1.5
24,A33G A126U,0.86

row,Variant,self-cleavage
1,A33G A126C,0.86
2,A33U A51C,2.09
3,A33U A51G,1.97
4,C35U A126G,0.58
5,U37A A98G,1.07
6,A36U C76A,0.1
7,A36C A114G,0.9
8,A36U A90U,1.74
9,A36G A117U,1.29
10,A36G A117G,2.27
11,A36G A92C,2.15
12,A36G A92G,1
13,A33G U124C,0.63
14,A33G,0.82
15,A33U,1.4
16,A36G U70C,0.6
17,A33U U139G,2.5
18,A33U U139C,1.86
19,A33G U102C,1.44
20,A33G U102A,0.34
21,C35U A64G,1
22,A33U A55U,2.31
23,A36C U38C,1.43
24,A33G A66U,0.35

row,Variant,self-cleavage
1,C35A A51U,1.93
2,C35U A56G,1.13
3,A36G U124C,0.45
4,A36C A94G,1.94
5,C34U G41U,1.82
6,A36U A62C,0.87
7,C34U A59U,0.75
8,A36G U87C,2.04
9,A36G U87A,2.26
10,A33U U37C,1.51
11,A36G G84A,1.88
12,A36G U43A,1.27
13,A36G U43C,1.91
14,A36G U103C,0.43
15,A36U U131C,1.87
16,A36G A51G,0.9
17,A36G A51U,1.86
18,A36G A55G,1.18
19,A36G A55U,1.38
20,A36G U97C,2.04
21,A36C U100C,1.85
22,A33U A118C,1.06
23,A33U A118G,0.91
24,A33G A64G,0.5

row,Variant,self-cleavage
1,A33U C105U,0.49
2,A33C A91G,1.57
3,A33U A66G,1.91
4,C34U A126G,1.12
5,A36G U133A,2.28
6,A36G C112U,0.03
7,C34U C128A,1.3
8,A33C A118C,0.99
9,A36G C76A,0.12
10,U37A A69U,1.92
11,A33G A36U,1.33
12,A33G A36G,1.15
13,A36G A63G,1.32
14,A36G A63C,2.09
15,A36G A63U,1.91
16,A36U U37C,0.59
17,C34U U127C,1.39
18,A36G A62C,1.51
19,A36G A62U,2.06
20,A33U U108C,0.05
21,A36U A82G,0.39
22,A36C A60G,0.49
23,A36C U49A,2
24,A33U A91G,0.6

row,Variant,self-cleavage
1,A36U A114G,0.6
2,A36U A114U,0.14
3,A33U A64G,1.31
4,A36G U39C,0.79
5,U37A A89G,0.43
6,A33G A134G,0.52
7,A33G A92C,0.81
8,A33G A92G,1.01
9,A33G A62G,1.11
10,A33G A62U,0.76
11,C34U U120G,0.94
12,A33U A59C,2.23
13,C34U U130C,1.44
14,A36G A82C,0.2
15,A33G A51G,0.75
16,A33G A51C,0.52
17,A33G A51U,0.82
18,A36C U37A,1.85
19,A33G U122C,0.64
20,C34A U102A,1.09
21,A36G A66G,1.8
22,A33G U97A,1.18
23,A33G G74U,0.19
24,U37A A60G,1.14

row,Variant,self-cleavage
1,U37A A60U,1.8
2,A33G A118G,0.49
3,A36G A91U,1.95
4,A36G A91G,0.95
5,A36G A91C,1.96
6,A33U C112U,0.01
7,A33U U130C,2
8,C34U U103A,0.44
9,C34U U103G,0.04
10,A36G G41A,2.26
11,A36U A78C,0.23
12,A36U U72G,0.29
13,A33G A129U,0.39
14,A33G A129G,0.35
15,A33G U120C,0.53
16,A33G A94G,0.75
17,C35A C112U,0.03
18,U37A A66G,1.72
19,A36U U49A,0.81
20,C34A A59G,1.11
21,C34U C76U,0.12
22,C34U A118G,1.49
23,A33G A78U,0.14
24,A33U U39C,1.56

row,Variant,self-cleavage
1,A33U A69G,1.71
2,U37A A59G,1.78
3,C34U A129G,0.51
4,U37A A82G,0.61
5,A36U C71U,0.49
6,A36C U127A,2.57
7,A33G A56G,0.77
8,C35U A98U,1.52
9,A33G A96U,1.14
10,A33G A96C,0.76
11,A33G C77U,1.59
12,A33U A60U,1.68
13,A36U A117U,0.88
14,A36U A117G,1.52
15,A36G A125G,0.6
16,C34U A96G,2.68
17,A33U U38C,2
18,A33G A63U,0.76
19,A33G A63G,0.45
20,A33C U87A,1.18
21,C34A A92C,0.26
22,A33G A140U,0.97
23,A33G A140G,1.26
24,C35A A94G,2.34

row,Variant,self-cleavage
1,U37A A116G,0.18
2,A36U U127A,2.98
3,A33G A135G,0.69
4,C34A A55G,1.25
5,A36G U37C,1.71
6,A33U A89G,1.46
7,A36G U108C,0.01
8,A33U U122A,2.69
9,A33U U122C,1.02
10,A36G A69G,1.37
11,C35U A60G,0.76
12,C35A C121A,1.53
13,A33U A94U,2.41
14,A33U A110G,0.08
15,A33U A110U,1.71
16,A33C U49C,1.93
17,C34U U122C,2.62
18,C34U A91G,1.1
19,A33U A92G,1.86
20,A33C A96G,2.84
21,A33U U127A,2.74
22,A36U A55U,0.98
23,A36C A86U,2.2
24,A36C A86G,1.24

row,Variant,self-cleavage
1,C34G A67G,1.12
2,C34U A62G,1.25
3,C34A A51G,1.27
4,A36U A51U,1.72
5,A36U A51G,1.82
6,A33G A116G,0.24
7,A33G A116U,0.21
8,A33G A116C,0.14
9,A36G A116G,0.76
10,C34U A55G,2.06
11,C34U A95G,0.45
12,C34U U124A,0.3
13,C35U U38C,0.61
14,A36U A56C,1.49
15,A36U A56G,1.46
16,A36U A56U,1.12
17,C34U U131C,0.84
18,A33U A95U,2
19,A33G U127A,1.19
20,A33G U127C,0.23
21,A33G G83U,0.24
22,A36G G75A,0.09
23,A36G A89G,1.52
24,A33G C113A,0.01

row,Variant,self-cleavage
1,A36G U120A,2.61
2,A36G U120C,1.28
3,A36G U120G,1.29
4,A33C U127C,1.38
5,A33U A36G,2.32
6,A36G A52G,1.79
7,A33G A95G,1.48
8,A33G U38C,1.41
9,C35U U132C,0.37
10,A33C U39A,2.06
11,A36G A96C,0.95
12,U37A A114U,0.06
13,A33C A116G,0.76
14,C35U A117G,1.25
15,A33U C128U,1.3
16,A33U C128A,0.48
17,A36U A110G,0.21
18,A33C A111G,0.03
19,A36G G136A,1.79
20,C34G U132C,2.44
21,A36C A66U,1.68
22,A36G A129G,1.3
23,C35U U102A,0.81
24,A33G A52G,0.91

row,Variant,self-cleavage
1,A33G A52U,1.42
2,A36G C113U,0.07
3,A33U U102C,2.32
4,A33U U72G,0.51
5,C35U A52G,1.03
6,C35U A95C,0.87
7,A33G U37C,0.74
8,A33G U37A,1.02
9,A33U G104A,0.01
10,C34A A116U,0.51
11,A36U A60G,1.11
12,A36U A60U,2.08
13,A36U U108C,0.02
14,A36U U108A,0
15,C34U U49C,1.17
16,A36U A67U,1.55
17,A36U A67G,1.86
18,A36U U103A,0.63
19,A36U U103C,1.16
20,A36G A59G,1.75
21,A36G A59U,0.83
22,A33C U57A,1.1
